Reference: US20190269788A1 (PIERRE FABRE MEDICAMENT, published 2019)
Substitutions are numbered along the chain they refer to. Like-named read-outs stand apart in the source and are kept apart here. One block for each binder: values may come before it.

Key:
[1] = target: T1, rhDtk-Fc (R and D Systems, cat No 859-DK) (human, UniProt Q06418 41-428, limits assumed); assay: ELISA on coated rhDtk-Fc, anti-mouse IgG-HRP, TMB
T1 construct: Bought
T1 sequence (looked up): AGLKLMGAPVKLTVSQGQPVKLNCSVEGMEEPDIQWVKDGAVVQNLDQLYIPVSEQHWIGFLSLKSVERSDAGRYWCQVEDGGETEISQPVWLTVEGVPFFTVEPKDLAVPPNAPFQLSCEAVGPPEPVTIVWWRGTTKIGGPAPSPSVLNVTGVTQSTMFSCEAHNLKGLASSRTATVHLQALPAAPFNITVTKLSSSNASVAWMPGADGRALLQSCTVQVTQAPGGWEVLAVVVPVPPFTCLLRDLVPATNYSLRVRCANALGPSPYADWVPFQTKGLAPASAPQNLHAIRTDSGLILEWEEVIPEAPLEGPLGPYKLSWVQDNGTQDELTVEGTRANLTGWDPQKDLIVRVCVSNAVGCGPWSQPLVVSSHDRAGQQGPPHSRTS
Procedure: (§1) Then 1/2 serial dilutions were done over 12 columns. Plates were washed and a goat anti-mouse (Jackson) specific IgG-HRP was added for 1 h at 37° C. Reaction development was performed using the TMB substrate solution. […] Coating controls were performed in presence of a goat anti-human IgG Fc polyclonal serum labelled with HRP (Jackson, ref 109-035-098) and/or in presence of a HRP-coupled anti-Histidine antibody (R and D Systems, ref: MAB050H).

[2] = target: T2, human Axl receptor on human tumor cells (SN12C and other lines) (human, UniProt P30530 26-894); assay: FACS titration on MDA-MB-231 cells, anti-mouse Alexa 488
T2 construct: also called membrane Axl receptor; cell-surface Axl
T2 sequence (P30530 26-894 D266N limits assumed): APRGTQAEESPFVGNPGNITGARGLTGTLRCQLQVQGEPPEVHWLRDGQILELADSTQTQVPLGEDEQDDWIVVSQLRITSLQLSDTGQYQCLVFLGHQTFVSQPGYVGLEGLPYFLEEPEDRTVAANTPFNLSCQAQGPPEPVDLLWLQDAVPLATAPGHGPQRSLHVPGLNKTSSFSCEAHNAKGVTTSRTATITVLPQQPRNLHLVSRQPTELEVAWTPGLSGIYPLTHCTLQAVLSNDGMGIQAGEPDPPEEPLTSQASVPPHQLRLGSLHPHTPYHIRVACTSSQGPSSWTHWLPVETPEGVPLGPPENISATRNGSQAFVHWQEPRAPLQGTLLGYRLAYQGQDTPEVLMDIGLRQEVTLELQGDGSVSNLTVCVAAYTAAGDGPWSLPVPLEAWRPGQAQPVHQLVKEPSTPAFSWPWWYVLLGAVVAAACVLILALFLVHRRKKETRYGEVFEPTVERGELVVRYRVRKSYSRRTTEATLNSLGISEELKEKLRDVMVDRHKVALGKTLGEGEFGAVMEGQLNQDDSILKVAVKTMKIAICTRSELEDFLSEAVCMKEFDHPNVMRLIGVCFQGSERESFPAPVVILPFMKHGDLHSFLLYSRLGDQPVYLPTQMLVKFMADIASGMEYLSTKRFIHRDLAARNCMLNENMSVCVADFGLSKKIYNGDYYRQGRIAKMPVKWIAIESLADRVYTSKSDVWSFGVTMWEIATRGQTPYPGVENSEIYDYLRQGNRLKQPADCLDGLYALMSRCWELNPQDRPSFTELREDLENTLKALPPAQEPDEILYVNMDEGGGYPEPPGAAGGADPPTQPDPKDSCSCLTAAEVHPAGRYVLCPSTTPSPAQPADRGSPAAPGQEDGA
Procedure: (§2) After 3 washes in phosphate-buffered saline (PBS) supplemented with 1% BSA and 0.01% NaN₃, cells were incubated with secondary antibody Goat anti-mouse Alexa 488 (1/500° dilution) for 20 minutes at 4° C. After 3 additional washes in PBS supplemented with 1% BSA and 0.1% NaN₃, cells were analyzed by FACS (Facscalibur, Becton-Dickinson). At least 5000 cells were assessed to calculate the mean value of fluorescence intensity.

[3] = target: T2, human Axl receptor on human tumor cells …; assay: FACS titration on SN12C cells, anti-mouse Alexa 488
Procedure: as §2

[4] = target: T3, rhMer-Fc (R and D Systems, cat No 891-MR) (human, UniProt Q12866 26-499, limits assumed); assay: ELISA on coated rhMer-Fc, anti-mouse IgG-HRP, TMB
T3 construct: Bought
T3 sequence (looked up): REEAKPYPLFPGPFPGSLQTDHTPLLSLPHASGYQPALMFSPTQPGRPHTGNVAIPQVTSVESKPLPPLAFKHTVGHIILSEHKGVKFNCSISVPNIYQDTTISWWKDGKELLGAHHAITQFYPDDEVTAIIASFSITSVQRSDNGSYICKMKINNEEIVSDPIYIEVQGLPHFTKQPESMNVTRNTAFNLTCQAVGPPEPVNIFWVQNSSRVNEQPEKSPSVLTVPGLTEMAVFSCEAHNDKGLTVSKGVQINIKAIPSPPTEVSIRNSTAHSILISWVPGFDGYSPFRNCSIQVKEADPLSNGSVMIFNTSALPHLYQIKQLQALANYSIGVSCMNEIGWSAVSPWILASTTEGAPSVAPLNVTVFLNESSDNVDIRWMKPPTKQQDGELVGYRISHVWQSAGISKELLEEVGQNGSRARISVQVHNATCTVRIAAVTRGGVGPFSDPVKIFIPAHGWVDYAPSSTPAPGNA
Procedure: as §1

[5] = target: T4, rhAxl-Fc protein (R and D Systems, cat No 154-AL) (human, UniProt P30530 26-451); assay: ELISA on coated rhAxl-Fc, anti-mouse IgG-HRP, TMB
T4 construct: Bought; also called recombinant human Axl-Fc
T4 sequence (P30530 26-451 D266N): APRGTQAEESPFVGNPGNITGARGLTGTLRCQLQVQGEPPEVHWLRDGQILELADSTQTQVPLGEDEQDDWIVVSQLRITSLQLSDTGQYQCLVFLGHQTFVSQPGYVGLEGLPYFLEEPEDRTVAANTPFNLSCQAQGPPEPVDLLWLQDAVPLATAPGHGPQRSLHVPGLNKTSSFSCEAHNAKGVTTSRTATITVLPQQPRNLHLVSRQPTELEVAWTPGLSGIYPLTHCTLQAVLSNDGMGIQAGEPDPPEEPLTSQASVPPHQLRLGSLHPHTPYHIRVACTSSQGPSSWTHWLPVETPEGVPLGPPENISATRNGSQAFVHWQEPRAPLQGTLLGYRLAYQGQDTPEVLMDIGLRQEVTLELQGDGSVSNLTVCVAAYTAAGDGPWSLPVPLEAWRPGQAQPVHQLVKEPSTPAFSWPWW
Procedure: as §1

[6] = target: T5, human IGF-1R, native, on MCF-7 cells or on hIGF-1R transfected cells (human, UniProt P08069 31-1367); assay: cell-based or functional assay
[7] = target: T5, human IGF-1R, native, on MCF-7 cells or …; assay: cell-based or functional assay; remark: listed apart in the source
[8] = target: T5, human IGF-1R, native, on MCF-7 cells or …; assay: cell-based or functional assay; remark: listed apart in the source

EC50 (read off the curve) [2]: ~1 nM | EC50 (read off the curve) [3]: ~0.9 nM | EC50 (read off the curve) [5]: ~1 nM
B1: m1613F12 (antibody, V domains shown)
VH: EVHLQQSGAELVKPGASVKLSCTASGFNIRDTYIHWVKQRPEQGLEWIGRLDPANGHTKYGPNFQGRATMTSDTSSNTAYLQLSSLTSEDTAVYYCARGAYYYGSSGLFYFDYWGQGTTLSVSS
VL: DVQITQSPSYLATSPGETITINCRASKSISKYLAWYQEKPGKTNKLLIYSGSTLQSGVPSRFSGSGSGTDFTLTISSLEPEDFAMYFCQQHHEYPLTFGAGTELELK
notes: Murine monoclonal antibody, detected with anti-mouse IgG; also called murine 1613F12; hybridoma I-4505
binding result [1]: no binding (tested: log (M) -7.5 (about 3e-8 M)) | binding result [4]: no binding (tested: log (M) -7.5 (about 3e-8 M))

% internalization (MCF-7, 10 µg/ml) [6]: 87% | ΔMFI (MCF-7, 4°C minus 37°C, 4 h) [6]: 344 MFI
B2: hz208F2 VH3/VL3 (antibody, human IgG1, kappa, V domains shown)
VH: QVQLVQSGAEVKKPGASVKMSCKASGYTFTSYYIYWVKQAPGQGLEWLGWIWPGDGSTKYNEKFQGRVTLTADKSSNTAYMFLSSLRSEDTAVYFCASPMITPNYAMDYWGQGTLVTVSS
VL: DIQMTQSPSSLSASVGDRVTISCRASQDISKYLNWYQQKPGKAPKLLIYYTSRLHSGVPSRFSGRGSGTDYSLTISNLQPEDFATYFCQQGSTLPYTFGGGTKVEIKR

phosphorylation of hIGF-1R as % of phosphorylation induced by IGF-1 (MCF-7, 10 µg/ml Ab) [7]: < 10% | ΔMFI (MCF-7, 4°C minus 37°C, 4 h) [8]: 322 MFI
B3: c212A11 (antibody, human IgG1, kappa, V domains shown)
VH: QVQLQQSGPELVKPGASVKMSCKASGYTFTSYYIHWVKQRPGQGLEWIGWIWPGDGSTKYNEKFKGKTTLTADKSSSTAYMFLSSLTSEDSAVYFCASPMITPNYAMDYWGQGASVTVSS
VL: DIQMTQTTSSLSASLGDRVTISCRASQDINKYLNWYQQQPDGTVKLLIYYTSRLHSGVPSRFSGRGSGTDYSLTISNLEQEDIATYFCQQGSTLPYTFGGGTKLEIKR

inhibition of hIGF-1R phosphorylation in response to IGF-1 (MCF-7) [7]: > 80%
B4: m212A11 (antibody, V domains shown)
VH: B3 VH
VL: DIQMTQTTSSLSASLGDRVTISCRASQDINKYLNWYQQQPDGTVKLLIYYTSRLHSGVPSRFSGRGSGTDYSLTISNLEQEDIATYFCQQGSTLPYTFGGGTKLEIK

phosphorylation of hIGF-1R as % of phosphorylation induced by IGF-1 (MCF-7, 10 µg/ml Ab) [7]: < 10% | ΔMFI (MCF-7, 4°C minus 37°C, 4 h) [8]: 288 MFI | % internalization (MCF-7, 10 µg/ml) [6]: 82% | ΔMFI (MCF-7, 4°C minus 37°C, 4 h) [6]: 278 MFI
B5: c208F2 (antibody, human IgG1, kappa, V domains shown)
VH: B3 VH with H35Y, I48L, G66D, S77N
VL: B3 VL with N30S, V44I, L78V

inhibition of hIGF-1R phosphorylation in response to IGF-1 (MCF-7) [7]: > 80%
B6: m214F8 (antibody, V domains shown)
VH: B3 VH with P9S, M20L, K63R
VL: B4 VL with I21F, N30S, V44I, S76T, T93A

inhibition of hIGF-1R phosphorylation in response to IGF-1 (MCF-7) [7]: > 80%
B7: m213B10 (antibody, V domains shown)
VH: B3 VH with P9S, K63R
VL: B4 VL with N30S, V44I, S76T, T93A

inhibition of hIGF-1R phosphorylation in response to IGF-1 (MCF-7) [7]: > 80% | % internalization (MCF-7, 10 µg/ml) [6]: 88% | ΔMFI (MCF-7, 4°C minus 37°C, 4 h) [6]: 294 MFI
B8: m208F2 (antibody, V domains shown)
VH: B3 VH with H35Y, I48L, G66D, S77N
VL: B4 VL with N30S, V44I, L78V

phosphorylation of hIGF-1R as % of phosphorylation induced by IGF-1 (MCF-7, 10 µg/ml Ab) [7]: < 10% | ΔMFI (MCF-7, 4°C minus 37°C, 4 h) [8]: 353 MFI
B9: c219D6 (antibody, human IgG1, kappa, V domains shown)
VH: B3 VH with A16D, T28S, Y33F, A72T, S84N
VL: B3 VL with N30S

inhibition of hIGF-1R phosphorylation in response to IGF-1 (MCF-7) [7]: > 80%
B10: m219D6 (antibody, V domains shown)
VH: B3 VH with A16D, T28S, Y33F, A72T, S84N
VL: B4 VL with N30S

phosphorylation of hIGF-1R as % of phosphorylation induced by IGF-1 (MCF-7, 10 µg/ml Ab) [7]: < 10% | ΔMFI (MCF-7, 4°C minus 37°C, 4 h) [8]: 369 MFI
B11: c213B10 (antibody, human IgG1, kappa)
heavy: not shown
light: DIQMTQTTSSLSASLGDRVTISCRASQDISKYLNWYQQQPDGTIKLLIYYTSRLHSGVPSRFSGRGSGTDYSLTITNLEQEDIATYFCQQGSALPYTFGGGTKLEIKRTVAAPSVFIFPPSDEQLKSGTASVVCLLNNFYPREAKVQWKVDNALQSGNSQESVTEQDSKDSTYSLSSTLTLSKADYEKHKVYACEVTHQGLSSPVTKSFNRGEC

phosphorylation of hIGF-1R as % of phosphorylation induced by IGF-1 (MCF-7, 10 µg/ml Ab) [7]: < 10% | ΔMFI (MCF-7, 4°C minus 37°C, 4 h) [8]: 403 MFI
B12: c214F8 (antibody, human IgG1, kappa)
heavy: not shown
light: B11 light with I21F
